Assay: soluble on expression in E. coli; label from the status in PepcDB or PDB records
With “MTPDQMRDASLLELFRLEAEAQTQVLNAGLMALERSPTQADQLEACMRAAHSLKGAARIVGLDAGVRVAHVMEDCLVEAQDGRLLLQSEHIDALLQGCDLLLRIGTPPAGDAGWAEGAGREEIDGLVLRLEGLVRSGLPLARAELPATTPGLPEAVPEAPPAASAAASDDNDEEPAGQAGGEQAEERRSRVLRVTAERLDRLLDISSKSLVEFQRIKPLADSLQRLRRLQSSASRALDVVRETVQETALDPQAQAMLGEARQLIGECQQMLVQHIADLDEFAWQGGQRAQVLYDAALASRMRPFADVLSGQARMVRDLGRSLGKQVRLLVEGESTQVDRDVLEKLEAPLTHLLRNAVDHGIEAPETRLAAGKPAEGRITIRARHHAGMLVLELSDDGGGIDLQRLRETVLNRQFATAETVAQLSEEELLAFLFLPGFSMREQVTEVSGRGVGLDAVQHMVRQLRGGVRMEQRQGQGALFHVEVPLTLSVVRSLVVEIGEEAYAFPLAHIERMCELEAEEIVQLEGRQHFWYEGRHVGLVSAAQLLQRPESSRTEGAIPVVVVRDRDAVYGVAVERFVGERTLVVMPLDPRLGKVRDVSAGALLDDGSPVLILDVEDLLHSVGKLLSSGRLERIDRSRRQAGGAQRKRILVVDDSLTVRELERKLLLGRGYDVAVAVDGMDGWNALRSEHFDLLITDIDMPRMDGIELVTLVRRDSRLQSLPVMVVSYKDREEDRRRGLDAGADYYLAKASFHDEALLDAVVVLIGEAQG” the “soluble on expression in E. coli” value was “not soluble”.
In the case of “MGSDKIHHHHHHMKQNLTLILMNEAVREGWREWMEKVRKVLPQTDAERPVTWIAAERLAQENGRMVRLVELLREHRPVLSYRVKEEAGLLILVAYHRHGSSSDFLLETAEAYFRERDCGGFLFLCRMQASINAYDEYPHLNVLCNRLAGLLFRFRRERASEYRKGIPPMFSGADLQEVEKYLPHLRGCSFREEIALALPKVKNVEELARECAMSVNTLGRRFKEELNTTPHRWLTEQRKAHVTSLLADTDMPLQEIADVCGFATPSYLWDFCKKHLKATPAEIREIARCARTV”, the “soluble on expression in E. coli” value is reported as “not soluble”.
In the case of “MNFQEENENIKNDIEINLLHSAEADSVEAMMDLAVYGLAAMVAKHNKTRGEQLVLQAIAGHMRKLLAALPETESLVQTGKVYRRLEDLIFKTYLPEQ”, the “soluble on expression in E. coli” value is reported as “not soluble”.
With “MNLSEITQQMGEVGKTLSDSVPELLNSTDLVNDPEKMLELQFAVQQYSAYVNVESGMLKTIKDLVSTISNRSF” the “soluble on expression in E. coli” value was “not soluble”.
In the case of “MGSDKIHHHHHHMHLIDFMNEDIKKKLVKKTYKKKETILFAEQENEYVILMIDGIAEAFILNVKGNISTIHLYRSGSFFGEMEQFNDGKKPVEIVAFTDCNVYKLHRDDFLNWLRGDFEATKFLIREISSKLVVNAELIEELSSLSVKERLLRCISLHYYRSELNLLTKKQLASEVNAPIRSINRAINECVQEHLIAYENKRFSVINQREVLKNLPTT”, the “soluble on expression in E. coli” value is reported as “not soluble”.
In the case of “MTTLLIVPGFGGSGPLHWQSWIAQKYTSSLWVNDLPLLEPKIHIWADAISRAMDNIEGKILILAHSFGCLASSLAIARHPQRVVAAILVAPASPESFSENGHILPEHDDTPTIRNLLPKQTLGICGLVIASENDPWMPFNQAASLAKSFGLPTINLGLSGHINVDSGHGQWPLIDVLVGNFLFQNENVPPIPSIKTAQDKTTPHLFPNGILEHHHHHH”, the “soluble on expression in E. coli” value is reported as “not soluble”.
For “MGSDKIHHHHHHMKILFISSLYAPDIGGGAEIILQRTVEGLQQRGYSIAVLATTDRPGLQLAEVNRVKVYRAGLLNQYWHFMPQRPERLARFAWHWRDRYNGGMRDYVRQVIELEQPELVVCHNLTGWSVSAWDEITRANRPVVQVLHDLYLLCPSSTMFKKGQSCQRQCSLCTQFRKHHAQQSEQVSTVVGVSRFMLDTLQAQGYFKGARGYVVHNASPFTPPHAGQTKAADDTAPLRFGYLGTLSENKGVGWLINQFQHLPFKATLQIAGRGQSNDEKRFRAMATSPDISFVGFQKPEDFYQHIDVAIVPSMWNEPFGLVAVEACAHSRPVIASRMGGLPEIIQDQLNGLLCSPDDPDSLGLAMLKLHQQPELLARLGSQARNSVASLLNLDLMLDQYESIFAQTLQDRSTWHGERVQLDPG”, the “soluble on expression in E. coli” value was “not soluble”.
With “GPLGSLGRRWGPNVQRLACIKKHLRSQGITMDELPLIGGCELDLACFFRLINEMGGMQQVTDLKKWNKLADMLRIPKTAQDRLAKLQEAYCQYLLSYDSLSPEEHRRLEKEVLMEKEILEK” the “soluble on expression in E. coli” value was “soluble”.
In the case of “MGSDKIHHHHHHMSDSFDVLWLNASPILKRFDKPLLDYLSGYMRIAQWEYQQTKDEASSIDQAVELLHNFLEWRDRPVHLAGHGMSGAIALTFARRFPQKVRSLTLLSVAAQPANNWQAHYYFQRQLFSISRELVLASTVRSLFGNQPPHTTKKLVAALDKDLEQSPSQHSLFKLVYLPKGGVSMPMMVCGSKSDPVVNPTVLHDWLNWLKPEDKLWECPQGYHFFHYFYPQQVGEEILSFWKRHPSHLLEASALSFSTSTN”, the “soluble on expression in E. coli” value is reported as “not soluble”.
With “MGSDKIHHHHHHMTKDYVIEMRNITKIFGEFVANDHINLNVRRGEIHALLGENGAGKSTLMNMLAGLLEPTSGEIVINGQSVKIDSPSKAAQLGIGMVHQHFMLVDAFTVAENIILGSETTKGGVIDLKKAIAEIKELSAKYGLEVDPTAKVADISVGAQQRVEILKTLYRGADLLIFDEPTAVLTPAEIAELLKIMKALVEEGKSIILITHKLDEIRAVADSVTVIRRGKSIETVAVEGATNQDLAEWMVGRSVSFKTEKVEASPKEVILSIKDLVVNENRGIPAVKGLSLDVRAGEVVGIAGIDGNGQSELIQAITGLRKVKSGSITIKGEEVVGKTPRKITEMQVSHVPEDRHRDGLVLPMTVAENFALQTYYKEPISKNGILNYNIINEKARALMEEFDVRGASELVPIKALSGGNQQKAIIAREIDRNPDLFIVSQPTRGLDVGAIEYIRKRLIAERDKGKAVLVVSFELDEILDVSDRIAVIHDGVIHGIVEPAKTNKQELGVLMAGGHIEKGEEHA” the “soluble on expression in E. coli” value was “not soluble”.
For “MKKILLVFLVGTMAFAAYGAEGDVQVSKSVEDSITKDYDQDGVYSSYEKALRRAQESVYVTLPEKRGYWYTMLDRIKAEEEELMPDEQARMRRKR”, the “soluble on expression in E. coli” value was “not soluble”.
In the case of “MGSDKIHHHHHHMTPDSSPSSVDDPLFESGHRIFANKDLLKIGHVPEADRIVGRDEEISKLAKRLNGAVHGYSPENVMIYGKTGTGKSLVSKHVCQRAQNAAQDGVEIGTAYIDCAEDNTETQAISSLAAKLNDESSTGISVPHTGLSTSKYYKLLWKTLDAQFDSVIIILDEIDLMNDDSVLMKLSRAEEAGKIDCSVGVIAISNKIQYVDNVNERVKSSFQHKELFFKPYDANQLREIMFNREDAFQDGVLSEDVIPLSAAFAAQEHGDARKAIDILRHAGEVAYEAGAELVTEEHVRQAQQHAEKDRFRELVNGAPTQAKAALLALTELSVNSNDDAFLTSRVYDQYEHICNHLDMDILSVRRFRDILKEQAFLGVVEIEKINKGSAGGIHLQNRLIEDSQVVRETILEDSRMQDWTRE”, the “soluble on expression in E. coli” value is reported as “not soluble”.
With “MQGDPDVLRLLNEQLTSELTAINQYFLHSKMQDNWGFTELAAHTRAESFDEMRHAEEITDRILLLDGLPNYQRIGSLRIGQTLREQFEADLAIEYDVLNRLKPGIVMCREKQDTTSAVLLEKIVADEEEHIDYLETQLELMDKLGEELYSAQCVSRPPT” the “soluble on expression in E. coli” value was “not soluble”.
With “SNAMRSAQVYRWQIPMDAGVVLRDRRLKTRDGLYVCLRDGEREGWGEISPLPGFSQETWEEAQTALLTWVNDWLQGSEGLPEMPSVAFGASCALAELTGVLPEAADYRAAPLCTGDPDDLVLRLADMPGEKIAKVKVGLYEAVRDGMVVNLLLEAIPDLHLRLDANRAWTPLKAQQFAKYVNPDYRARIAFLEEPCKTRDDSRAFARETGIAIAWDESLREADFTFEAEEGVRAVVIKPTLTGSLDKVREQVAAAHALGLTAVISSSIESSLGLTQLARIAAWLTPGTLPGLDTLHLMQAQQIRPWPGSALPCLKREELERLL” the “soluble on expression in E. coli” value was “soluble”.
With “MSTHGSLSEVERFNLLYKSSFNKVCNFACFYVRNKQASEDITMDAFLQLLETMKVESVDNPMALLITIVKHKSLDYLKTQVRREDTKDDLIQWKQRELAIRISNLEGCNPSYIFSQEIKSIVMKTLNQLPEQTKKVFIMNRFENKSGKEIAQTLGISVKGVDYHMNKALKELRAALKDYLPILTWLCFMNPINKG” the “soluble on expression in E. coli” value was “not soluble”.
For “MGSDKIHHHHHHMINREIAVKVQHVSKTFKLPTEATKSFRTTLVNRLRGIKGFTEQHVLKDINFDVYKGDFFGIVGRNGSGKSTLLKIISQIYVPEKGQVTVDGKMVSFIELGVGFNPELTGRENVYMNGAMLGFTKDEVDDMYNDIVDFAELHHFMNQKLKNYSSGMQVRLAFSVAIKAQGDVLILDEVLAVGDEAFQRKCNDYFMERKDSGKTTILVTHDMGAVKKYCNRAVLIEDGLVKAYGEPFDVANQYSVDNTETAEDAMNAEKISVSDIAKDLKVSLISNPRITPNDTITFEVSYEVLKDDFTYIAFSLTDIDRNIWVYNDNSLDYPTQGIGRKCISYQCQLSQLNDIKLKLEVTVRDKNGQMLLFSTAEQSPQIVIQRNDIDQDDLSALDSASGLYQRNGKWVFH”, the “soluble on expression in E. coli” value was “not soluble”.
In the case of “MSLPRARSTIAMCLALTALLGACGRSPQECMERAMYFESNRSSRDGMVAVGSVVMNRVESGQYPKSVCGVVGQRFQFAPRIMSRRMDSRSLPLVRETARSVLKGERHPMIGDAMFFHTAGHRFPYDNMHYVLVTGGNAFYERRPSALVTQPVPPQPMEGLTGWRGW”, the “soluble on expression in E. coli” value is reported as “not soluble”.
In the case of “WRKDIVLPKDQAKGVRPYNPKFKDSEYFSRYNALINDERLIEFAKKNNYKITFFPHPDIQQQIVDFEKHDYVEFADYNSSYQMLFNSSNIMITDFSSVAFDFAYEKKPVIYYQYEKSYHFKLDYYDYKKMGFGDVLENHNSLVDKVIYYMKNNSRMEDKYRKRVDNFFAYTDKNNRNRIYNAILE”, the “soluble on expression in E. coli” value is reported as “not soluble”.
With “MSLINLWPLLLPAAAWSGWWLANRSNSNKDAHVHNRLSREYVVGLNYLLNEQSDKAVDVFIKLLEVDSDTVETHLALGSLFRRRGEVDRAIRIHQNLIARPQLSIQQRKEALMALGQDYMSAGVFDRAERIFLEVVELGGSRDTSSLQGLLAIYQQEKAWEKALDIIKKLEISTGASFHNQAAHYYCEMASQALKINAMDRAIYCIKQAMNVDPESVRASLMNATIEIKEGRYKQAIRSLKRVPQQDAEFLTEIIEPLVLCHKELDSMPDCIHYLEQTLEKHPRASVIFVIADYLRQNKGMDIAIDFVADNLSKHPSIRGLNRLIYWHLESAHGKVREKLQMLYDITSKFLDNKPIYRCGHCGFGGKHLHWHCPSCKQWGRMKPIHGLEGDEGHHHHHH” the “soluble on expression in E. coli” value was “not soluble”.
In the case of “MGSDKIHHHHHHMIISWNTTNKCNMHCEHCYRDSGKGAEGELSTTEGKKLIDEIAKAGFKIMIFSGGEPLLRDDIYELIGYASKIGLRCVIGSNGTLITLEAAQKLKKAGVMRAGISLDSLKAKKHDSFRNYSGAWENTIIGIENLKKAGISFQINTTVMKWNKDEVKDITDFGANLGASAHHVFFLVPTGRGAELQEQILSKNDYENLIKEIMLKQAHANIEIKPTCAPQFVRIAEQNNIKTRFKKGCLAGIKYCIISPTGNVQPCAYLNFSAGNVKQKSFGEIWRESPILKKLRTMEYGEKCGTCKYKNKCGGCRARAAFYNNGDIMASDTWCIYNEYEENKING”, the “soluble on expression in E. coli” value is reported as “not soluble”.
In the case of “MAGDPMIIYRQYHHEGAPVYEIITKTFQHVSIKCDDSFSDTEIFKLLSLLQDDIDHMKVSLEHHHHHH”, the “soluble on expression in E. coli” value is reported as “not soluble”.
In the case of “SQGENVDHAQPISTWSAEQELHLVVFTKPPIAGLTKQRLSREIGSTLATRISAALVENTLATAYDWLQGLDLQAGGTGAVHLYYTPVESEQAKAECVERWLDDSVRHRYPAFRIAPQKASKVQSTGDQKQDPLGSRLIQAFTEVTSLVDESRDAHVVVIGSDCPALDTAVLQQAFAALHAGHGAVIGPAQDGGYYLLGLAFAAAERTRWARVIYAAFGPHLVFSQNDVCARTVEALRNDGVRTICLPVTLNDVDTAQDLVHLPASMRPREWFSSANARLHKTSDLVETAPAPGSTTCDEEVDADKLDPSVQNVCSRQV”, the “soluble on expression in E. coli” value is reported as “soluble”.
In the case of “MEINSREVYVFTPKGDVMSLPQGATPVDFAYAVHTEVGHRCIGARVNGKLVTLDTKLNNGDVIDILTSNAPDAGPSRLEHHHHHH”, the “soluble on expression in E. coli” value is reported as “not soluble”.

Source: the DeepSol protein solubility set
